Data published in the DeepSol protein solubility set.

Assay: soluble on expression in E. coli; label from the status in PepcDB or PDB records
With “MIIEERKNHELNLESIDRDLRMENVRQSAEKLGWEHFARSVRRNLLEKRQTLDARTRLDVLGSLVFMKEHLPIDNDATIARKVQQLSEGLGEHCVFSTQNSGFSIRNPDVTIDIGVAEDQISTCKIGYFGQPLTDAPGALALMKNGEFSKLRDSITAILSSLPKEITLSEKNACKEAFRALDQLLIRDAADSSFTAINTGKYGFYAPRNELRSGRIYYVAEPVLIRLAEKEGKTKADASYLDLLPYIEISFFKHDKPSKLPVFTQTGEWSTFNDANVCICVRFNQGFLLSQQTIRKLSHIVPKSPLVRNYVNFYRYMTGRVGVKSNLKLLTQFPDEGDIQQQYQVDSKMLTKEDDVVAMEMYLSDFRDLSKLIETLRSEWKHASLWESILAICESSKGEQKEVNAVDMQLVLRRTEFFLQFDTDYGSMTMQIFEKSPSNYVVKTTSQITGESPSLDFDKMLTEKLNSTWSIPATLTFAITDLKCRINSVLNCVISFDSSSSSDKQHQNYWSISNNNTQLMQSAAQKSAAKCTKKKVTVLEVGPAIEPTQLVYTRENDEEFQGSLLSSFGEVDDYYVKTSTIGRTRPQPRPKREPNQLTSMDMMSAELDKSRHTMEGSMRDAQTSSFLDAARVRMKQSIGAAHAVGLASHQPPASPVAAAAAAPGGPMRHNSYPSGFEPPPSVAPYDFPADPSKKQRKQRAKKQPGEEPPAGRGKGGKKGRGAGAVGAAAAGGRKSAGGAGENPFGMDPMRPPMLQRSSSEQHNPNPHQMSQYQMQQYQQNQQFRMHQMQQQQQQQFQMQSPKNPLVPAYTDEDSDEECDPPPPPKPQVSTSSRMSSVPSHPPPPPQQLGNPMVGYPGMPLQSPNHLPLTPSPLSAPPKPFSPEQQHHFGMKMRETSYWKELERLETKPDVEKLKQQLSSSSSSSQAEASDPPSTSTEAQDPPKPSSSSAPPPPKKKLGLEAAISKIRGQQEQALQKQLQQQESVESELATPHPGSSGAPPLAPHQVNRARNLNDIFDDEADDSSPTADIKPSLQALQKPTDTSSQSTSSEPPPKKEPADEQPEREKEKLILKIPKMLKPVVDDRREDRKERDRDRDRDRDRDEDREKVRDKEDKAQREKDKKEKERERRRQRDRDRTEQKKSDREKEPSKKRKLEKKDEKEKDRREPERKKGKSDGKEYSKASTTSLIPTLSLKNFRIPKKDTVEEEKKDVKEEAPGPSSSTESKKEPPSAAPITRKESTTAPVAPAVQQQQQRKESFTALPSLPEQQQHHREPLLKKKPPLQPPPPPQMTGPPIGIYPGPPAPGNLPGSSRPSGNRKQPLPPPPPMIRGPPPDQMYRDRSGGGGGSMRGGFPPASHYHGGTSGVNKQVASYAQGLPPGMGPPVVKPHGNNYQASQWVRPPTHRDSSHSYHGMPSLGPPQLQREPPAPPPPQMIPLPKDPPVLREHPREHRAHRGGADDDGPDSPEEGTLRIDDE” the “soluble on expression in E. coli” value was “not soluble”. In the case of “MIIEFLKKLLAGTPETVPAKETKRMTKVLVLYYSSYGHIETMAYAVAEGVESTGAEAVVKRVPELVPEEVAKSSHFKMDQPAPVATVDELAEYDAIIVGAGTRFGTVASQMRNFWDQTGGLWFSGKLVGKVGSAFTSSATQHGGQESTILGFIPTFLHHGMAVVGLPYAFQGQMGVDEIKGGSPYGASTITDGDGSRQPSAIELDAARYQGAHVAKLAAKLSA”, the “soluble on expression in E. coli” value is reported as “not soluble”. For “MIIIMAGGKSSRMGREKPVLKIAGKEMLLWVYEQAEAVGEVLVALSRHTPRTRELCLREGIEFVDTPGRGYVKDVQWLLREFGPFISLSSDIPFVKSSDIYSLLKEFDGKVSLTGVLPLEVVPKDLTPYSYMGYAIVGINGVAKEGEKFFVFSNPLLALNVNTPRELELAKRVAEIIRVRGIR”, the “soluble on expression in E. coli” value was “soluble”. For “MIILNIPLFKGLTLEQIEDMKNKHCMTEKKYKKNSFIFRAGDIVHEIGIVLEGSINIEMIDMWDNKSILSNIDVGQIFAESYALCNEPMMVDAVATKDSTILMLNMRQIFAPINNSASWYNTFTYNLLVLSTRKNLTLSTRIFCTSSKSVRGRVLTYLSNQSIKHNNTEFQIPFNRQQMADYLNLDRSALSKELGKMQDEGIITFNKNRFKLNINYDSEF”, the “soluble on expression in E. coli” value was “not soluble”. With “MIINNVKLVLENEVVNGSLEMQDGEIRAFAESQSRLPEAMDGEGGWLLPGLIELHTDNLDKFFTPRPKVDWPAHSAMSSHDALMVASGITTVLDAVAIGDVRDGGDRLENLEKMINAIEETQKRGVNRAEHRLHLRCELPHNTTLPLFEKLVQREPVTLVSLMDHSPGQRQFANREKYREYYQGKYSLTDAQMQQYEEEQLALAARWSQPNRESIAAMCRARQIALASHDDATHAHVAESHQLGSVIAEFPTTFEAAEASRKHGMNVLMGAPNIVRGGSHSGNVAASELAQLGLLDILSSDYYPASLLDAAFRVADDQSNRFTLPQAVKLVTKNPAQALNLQDRGVIGEGKRADLVLAHRKGNHIHIDHVWRQGKRVF” the “soluble on expression in E. coli” value was “not soluble”. With “MIIPLVFLIGFAAAGNFGSSSSESCEDGNGGGRPRPGNGGGRPPGNGNGNGNGGGRPTNGGCDAGWRRFNRPNGGWCVRVFGARMTQADAQIQCQSYGATLSSLQNMEEALQINNMALSVIKANTGSVWIGAKRTTACLKQWLWTNGCGRQNSFAWTDGSATGVAGFVWDNLQPDNDELKQPCAVMLAARAAVTWGGKFWQPAMLDDNNCMFDLEGKHPRSVYGYVCGKNSRA” the “soluble on expression in E. coli” value was “not soluble”. In the case of “MIKHLFIDLDDTLWDTYHNNKSSLEELYHTHAWDRYFDSFETFFSIYLPHNEALWSEYRYGQIDKPTLTLERFRRPFTGYLTLSDEQILAWNAEFLSITGRKTRLCPHALEVMEYLHRYYKVYILSNGFREIQHAKLTNSGLAPYIDRVILSEDAGINKPNKKIFDFALVKAKARKTESIMIGDSWEADIVGAANAGLASVWYNPNRHILPDDGVRAPMHIISSLSELMQIF”, the “soluble on expression in E. coli” value is reported as “not soluble”. For “MIKIAIPTSKGGLEDKVHESLVRAETFTLVEVKDGKIERIEVVENPHKNEPYGAGSKVAIFLVNNGVNILLTPMDCPKGKAILEAGGVKIIKVKQGKSVKEVIEAFQSSSSGYSLQ”, the “soluble on expression in E. coli” value was “soluble”. For “MIKIPRGTQDILPEDSKKWRYIENQLDELMTFYNYKEIRTPIFESTDLFARGVGDSTDVVQKEMYTFKDKGDRSITLRPEGTAAVVRSYIEHKMQGNPNQPIKLYYNGPMFRYERKQKGRYRQFNQFGVEAIGAENPSVDAEVLAMVMHIYQSFGLKHLKLVINSVGDMASRKEYNEALVKHFEPVIHEFCSDCQSRLHTDPMRILDCKVDRDKEAIKTAPRITDFLNEESKAYYEQVKAYLDDLGIPYTEDPNLVRGLDYYTHTAFELMMDNPNYDGAITTLCGGGRYNGLLELLDGPSETGIGFALSIERLLLALEEEGIELDIEENLDLFIVTMGDQADRYAVKLLNHLRHNGIKADKDYLQRKIKGQMKQADRLGAKFTIVIGDQELENNKIDVKNMTTGESETIELDALVEYFKK”, the “soluble on expression in E. coli” value was “soluble”. In the case of “MIKLDMTMLDSFKEDPNLRKLLFSGHFGLEKENIRVTSDGKLALTPHPAIFGPKEDNPYIKTDFSESQIEMITPVTDSIDSVYEWLENLHNIVSLRSENELLWPSSNPPILPAEEDIPIAEYKTPDSPDRKYREHLAKGYGKKIQLLSGIHYNFSFPEALIDGLYANISLPEESKQDFKNRLYLKVAKYFMKNRWLLIYLTGASPVYLADFSKTKHEESLPDGSSALRDGISLRNSNAGYKNKEALFVDYNSFDAYISSISNYIEAGKIESMREFYNPIRLKNAHTDQTVESLAEHGVEYLEIRSIDLNPLEPNGISKDELDFIHLFLIKGLLSEDRELCANNQQLADENENNIALNGLAQPSIKNCDNEDIPLADAGLLELDKMSDFIKSLRPEDTKLRAIIEKQKERLLHPEKTIAAQVKQQVTKEGYVDFHLNQAKTYMEETEALAYKLIGAEDMELSTQIIWKDAIARGIKVDVLDRAENFLRFQKGDHIEYVKQASKTSKDNYVSVLMMENKVVTKLVLAEHDIRVPFGDSFSDQALALEAFSLFEDKQIVVKPKSTNYGWGISIFKNKFTLEDYQEALNIAFSYDSSVIIEEFIPGDEFRFLVINDKVEAVLKRVPANVTGDGIHTVRELVEEKNTDPLRGTDHLKPLEKIRTGPEETLMLSMQNLSWDSIPKAEEIIYLRENSNVSTGGDSIDYTEEMDDYFKEIAIRATQVLDAKICGVDIIVPRETIDRDKHAIIELNFNPAMHMHCFPYQGEQKKIGDKILDFLFD”, the “soluble on expression in E. coli” value is reported as “soluble”. With “MIKLTEYIYLASEQPLSTGSITLNGLSKPTGNLLNKAFFFFINDFEGDPPGKFSYSNYLKTLNYQVCSMCSLPSDNQNIETPSAIALLGYIRNHFKNTCTTKLYILSALNGFENKPISKTVTRKLSDLSYKDLYYQEMKLLKIIR” the “soluble on expression in E. coli” value was “not soluble”. With “MIKQVIQQLRVPDAGIENLQERRYWLQCERAYTYQPIYQTDGRLMAVELLTVVTHPDNPSRRIAPDRYFAELAVRHRIDVVKEQLHQLEQKADFFTRHHLLASVNVDGPTLIAMRRQPDILAAMERLPWLRFELVEHIRLPKDSSFASMCEFGPLWLDDFGTGMANFSALSEVRYDYIKVARELFVMLRQSPEGRNLFTLLLQLMNRYCRGVIVEGVETLEEWRDVQRSPAFAAQGYFLSRPVPLISLEEVILTL” the “soluble on expression in E. coli” value was “not soluble”. In the case of “MIKTRDQSIFDEMFKRIQSLGFKVYDYKPMTEVPYPFVEMESTDAEYIPNKDDIKGSVELMLSVWGVQKKRKQVSDMASAIFSQALTVESSDVFRWSLNTRQSSIQMLDDTTTVTPLKRAIVTLRFNLR”, the “soluble on expression in E. coli” value is reported as “not soluble”. For “MIKVLLLDVDGTLLSFETHKVSQSSIDALKKVHDSGIKIVIATGRAASDLHEIDAVPYDGVIALNGAECVLRDGSVIRKVAIPAQDFRKSMELAREFDFAVALELNEGVFVNRLTPTVEQIAGIVEHPVPPVVDIEEMFERKECCQLCFYFDEEAEQKVMPLLSGLSATRWHPLFADVNVAGTSKATGLSLFADYYRVKVSEIMACGDGGNDIPMLKAAGIGVAMGNASEKVQSVADFVTDTVDNSGLYKALKHFGVI”, the “soluble on expression in E. coli” value was “not soluble”. In the case of “MILAQKQKQVIRLNLISTWRKLISSTKIPNWLSQTKIQSKYQTRGIYPGSFFQKTIFRKDGSMSVQRTLQKYMDDWKRISHFDFCLLQEDNSILVTTCDRRLPAESKLEEFRNSTALCLSNATCCLYKITEKNEQLLLIVWGSEDSVSTIGELAVCQIESILESYAEKNDKNAFMQKLLLGDYTDVEAFNRARKLHISSSARRAVFLVETRQSKDEHALATIKNIFSARTHDFITSIDNRGIIVVRELTSTETYDDLENIAHMLVDMLGTEAMTQAWVAYSNTANDLKDLSNAYKEARTALEIGKIFYAERNVFGYRTLGIGRLLYQLPVSICEMFIQEIFGDESLDSIDGETLAIIRTFFENNLNLSETSRQLYVHRNTLVYRFEKIQKRFGLDLRTFEDAMTFKLAMLVSRYLRYQNRT”, the “soluble on expression in E. coli” value is reported as “not soluble”. For “MILDADYITEDGKPVIRVFKKEKGEFKIDYDRDFEPYIYALLKDDSAIEDIKKITAERHGTTVRVTRAERVKKKFLGRPVEVWKLYFTHPQDVPAIRDKIREHPAVVDIYEYDIPFAKRYLIDRGLIPMEGDEELRMLAFDIETLYHEGEEFGEGPILMISYADEEGARVITWKNIDLPYVESVSTEKEMIKRFLKVIQEKDPDVLITYNGDNFDFAYLKKRSEMLGVKFILGRDGSEPKIQRMGDRFAVEVKGRIHFDLYPVIRRTINLPTYTLETVYEPVFGQPKEKVYAEEIARAWESGEGLERVARYSMEDAKATYELGKEFFPMEAQLSRLVGQSLWDVSRSSTGNLVEWFLLRKAYERNDVAPNKPDERELARRTESYAGGYVKEPEKGLWENIVYLDYKSLYPSIIITHNVSPDTLNREGCREYDVAPQVGHRFCKDFPGFIPSLLGDLLEERQKVKKKMKATVDPIERKLLDYRQRAIKILANSYYGYYAYANARWYCRECAESVTAWGRQYIETTMREIEEKFGFKVLYADTDGFFATIPGADAETVKNKAKEFLNYINPRLPGLLELEYEGFYRRGFFVTKKKYAVIDEEDKITTRGLEIVRRDWSEIAKETQARVLEAILKHGDVEEAVRIVKEVTEKLSRHEVPPEKLVIYEQITRDLRSYRATGPHVAVAKRLAARGIKIRPGTVISYIVLKGPGRVGDRAIPFDEFDPAKHRYDAEYYIENQVLPAVERILRAFGYRKEDLRYQKTKQAGLGAWLKPKT”, the “soluble on expression in E. coli” value was “soluble”.
